Laboratory results from paper PMC10278182, “Evaluation of Nanopore Sensor Design Using Electrical and Optical Analyses” (ACS Nano, 2023).

What was measured:
Experiment in all cases: BLI; ND-BLI: biotinylated nanodiscs (15 nM) with reconstituted nanopores loaded on streptavidin (SAX) sensors; WDR5 in solution, 1 to 18 μM; 300 mM KCl, 20 mM Tris-HCl, 1 mg/mL BSA, 1 mM TCEP, pH 7.5; 24 °C; empty nanodiscs as reference
Conditions in all cases: both partners purified
[1] = target: T1, WD40 repeat protein 5 truncation mutant lacking residues 1-22 (WDR5ΔN) (UniProt P61964 23-334)
[2] = target: T1, WD40 repeat protein 5 truncation mutant …; remark: listed apart in the source
[3] = target: T1, WD40 repeat protein 5 truncation mutant …; remark: listed apart in the source

Kd [1] [nM] | koff [2] [s⁻¹] | kon [2] [M⁻¹ s⁻¹] | koff [3] [s⁻¹] | kon [3] [M⁻¹ s⁻¹] | Binder
250 ± 50 | 0.0046 | 19000 |  |  | MGDRGPEFELGTMLNPHGAARAEVYLRGGSGGS (other) [O(GGS)2 nanopore sensor (adaptor O - MLL4Win - (GGS)2 tether - tFhuA)]
260 ± 30 | 0.0049 | 19000 |  |  | MLNPHGAARAEVYLRGGSGGS (other) [(GGS)2 nanopore sensor without the peptide adaptor (MLL4Win - (GGS)2 tether - tFhuA)]
3010 ± 940 |  |  | 0.018 | 6000 | MGDRGPEFELGTMLNPHGAARAEVYLRPAPAPA (other) [O(PA)3 nanopore sensor (adaptor O - MLL4Win - (PA)3 tether - tFhuA)]
